Key:
[1] = target: T1, VZV glycoprotein E, full-length gE ectodomain (gE_FL) (Varicella-zoster virus; strain not …, UniProt P09259); test: BLI; Octet Red96; Fabs loaded onto FAB2G biosensors (0.5 to 1.0 nm), gE as analyte at 25 nM to 1.6 nM; 1 x PBS with 1% BSA; conditions: both partners purified
T1 construct: Varicella zoster virus glycoprotein E (gE), 'full-length gE ectodomain', includes the disordered N-terminal region (residues 1-115); The construct used in the HPLC-SEC binning is only called 'VZV gE'; also called FL gE; VZV gE; source: Expi293 cells, transfected, purified from culture supernatant (HisTrap, Superdex 200 SEC)
T1 sequence (P09259 whole entry, looked up, the tested form may be a part): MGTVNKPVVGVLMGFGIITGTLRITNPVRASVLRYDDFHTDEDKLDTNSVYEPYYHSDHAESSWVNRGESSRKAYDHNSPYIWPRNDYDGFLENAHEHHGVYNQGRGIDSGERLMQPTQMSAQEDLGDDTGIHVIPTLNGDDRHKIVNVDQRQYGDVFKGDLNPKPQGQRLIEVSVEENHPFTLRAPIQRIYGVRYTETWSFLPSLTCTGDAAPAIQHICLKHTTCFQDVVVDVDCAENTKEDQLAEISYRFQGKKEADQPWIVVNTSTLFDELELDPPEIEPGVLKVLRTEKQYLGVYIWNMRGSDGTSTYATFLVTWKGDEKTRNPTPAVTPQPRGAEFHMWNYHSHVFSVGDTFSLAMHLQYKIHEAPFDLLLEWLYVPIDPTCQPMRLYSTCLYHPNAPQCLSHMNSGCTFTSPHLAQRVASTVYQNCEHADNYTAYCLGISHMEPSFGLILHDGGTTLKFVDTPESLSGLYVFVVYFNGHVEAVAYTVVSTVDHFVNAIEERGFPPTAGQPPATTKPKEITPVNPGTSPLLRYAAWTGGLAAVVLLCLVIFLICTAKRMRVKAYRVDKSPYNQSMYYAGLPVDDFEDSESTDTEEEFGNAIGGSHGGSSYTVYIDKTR

[2] = target: T1, VZV glycoprotein E, full-length gE …; test: SEC; HPLC-SEC epitope binning: VZV gE mixed with primary Fab at mass ratio 1:3 for 10 min at room temperature, then with secondary Fab at the same ratio; Superdex 200 Increase 3.2/300; conditions: both partners purified

Row | Binder | binding result [1] | binding result [2]
1 | Fab 5A2 (recombinant Fab of human anti-gE antibody 5A2, elicited by ZVL vaccination) (Fab, V domains shown, also called 5A2 Fab; source: HEK293 Expi cells, transient, purified (StrepTrap HP, SEC)) VH: QVQLQESGPGLVKPSETLSLTCIVSGGSISRYYWSWIRQPPGRGLEWIGNIYYTGTTNYNPSLQSRVTISLDTSKNQFSLRLTSVTAADTAVYYCARIGGVSFGERPIDYWGQGTLVTVSS VL: DIQMTQSPSSLSASVGDRVTITCRASQTISTYLNWYQQKPGKAPKLLIYAASTLQSGVPSRFSGSGSGTDFTLTITSLQPEDFAAYYCQQSYSIPLTFGGGTKVEIK | binds | –
2 | Fab 1E3 (recombinant Fab of human anti-gE antibody 1E3, elicited by ZVL vaccination) (Fab, V domains shown, also called 1E3 Fab; source: HEK293 Expi cells, transient, purified (StrepTrap HP, SEC)) VH: QVQLQESGPGLVKPSQTLSLTCTVSGGSISSNDYYWTWIRQSPGKGLEWIGFISYNGDTYYNPSLKRRGTISVDTSKIQFSLRLSSVTAADTAVYYCARVRTSSTTSYYFDYWGQGTLVTVSS VL: DIQMTQSPSSLSASVGDRVTITCRASQGIRNYLNWYQQKPGKAPMLLIYGASSLQNGVPSRFSGSGSGTEFTLTISSLQPEDFATYYCQQSYRTLTFGPGTKVDIK | binds | –
3 | Fab 1A2 (recombinant Fab of human anti-gE antibody 1A2, elicited by ZVL vaccination) (Fab, V domains shown, source: HEK293 Expi cells, transient, purified (StrepTrap HP, SEC)) VH: EVQLVQSGAEMKKPGASVKVSCKTSGYVFNEYYIHWVRQAPGQGLEWLGRINPNSGDANYAPKFQGRVTLTRDTSIRTYFMELNRLRSDDTAVYYCARIMYFEYDSWSDYWGQGTLVTVSS VL: DIQMTQSPSSLSASVGDRVTITCRASQSIRSNLNWYQQKPGKAPNVLIYATSSLQSGVPSRFSGSGSGTDFTLTIRSLQPEDFATYYCQQSYSLPWTFGQGTKVEIK | binds | –
4 | Fab 1E8 (recombinant Fab of human anti-gE antibody 1E8, elicited by ZVL vaccination) (Fab, V domains shown, source: HEK293 Expi cells, transient, purified (StrepTrap HP, SEC)) VH: QVQLQESGPGLVRPSQTLSLTCTVSGGSITSGSFYWSWVRQSAGKGLEWIGRIFKTGSTTYKPSLKSRVTMSVDTSKNQFSLKLSSVTATDTAVYFCARAPFYNDFSGYSYYFDYWGQGTLVTVSS VL: QSVLTQPPSASGTPGQRVTISCSGSSSDIGPNTVHWYRQVPGTAPTLLIYSDNQRPSGVPARFSGSRSGTSASLAISGLQSEDEAIYYCAAWDDSLNPLYVFGTGTKVTVL | – | binds
